Columns and labels:
latent PDGF-CC = molecular target: T1, latent PDGF-CC (Homo sapiens, UniProt Q9NRA1); assay: Cotransfection assay in COS-1 cells: protease plus full-length PDGF-C; assay type: cell-based; details: COS-1 conditioned medium, immunoblot, 22 kDa species under reducing conditions
T1 construct: cotransfected with full-length PDGF-C (Li et al, 2000), full-length PDGF-D (Bergsten et al, 2001); expressed in transfected cells; host or cells: COS-1 cells
Text: (§1) A cotransfection assay was established to identify serine proteases able to cleave and activate latent PDGF-CC. Expression plasmids encoding the relevant enzymes and full-length PDGF-C were cotransfected into COS-1 cells, and aliquots of the conditioned media from the transfectants were subjected to SDS-PAGE and immunoblotting using antibodies to the growth factor domain of PDGF-C. […] As a specificity control, the ability of tPA and NT to use full-length PDGF-DD as the substrate in the cotransfection assay was analysed. […] One difference in the latter results, as compared with the results from the cotransfection assay, was that purified tPA generated a second intermediate species of 32 kDa using latent PDGF-CC as the substrate. It is possible that this intermediate is the result of digestion by plasmin contamination in the tPA preparation, since the size of the fragment is similar to that of plasmincleaved PDGF-CC previously reported (Li et al, 2000). […]
To test the endogenous expression of PDGF-CC, subconfluent AG1523 cells and primary fibroblast cultures were cultured in serum-free DMEM overnight. […] In the case of the primary cultures, total protein concentration was measured and normalized (Bradford, 1976). […]

latent PDGF-DD = molecular target: T2, latent PDGF-DD (Homo sapiens, UniProt Q9GZP0); assay: Cotransfection assay in COS-1 cells: protease plus full-length PDGF-D; assay type: cell-based; details: COS-1 conditioned medium, immunoblot
T2 construct: cotransfected with full-length PDGF-C (Li et al, 2000), full-length PDGF-D (Bergsten et al, 2001); expressed in transfected cells; host or cells: COS-1 cells
Text: as §1, with “substrate.” for “substrate. It is possible that this intermediate is the result of digestion by plasmin contamination in the tPA preparation, since the size of the fragment is similar to that of plasmincleaved PDGF-CC previously reported (Li et al, 2000).”
To test the endogenous expression of PDGF-CC, subconfluent AG1523 cells and primary fibroblast cultures were cultured in serum-free DMEM overnight. […] In the case of the primary cultures, total protein concentration was measured and normalized (Bradford, 1976). […] PDGF-C and PDGF-D were detected by immunoblotting using affinity-purified polyclonal rabbit antibodies against PDGF-C (Li et al, 2000) and PDGF-D (Bergsten et al, 2001), respectively. The His6-tagged proteins were detected using an anti-His monoclonal antibody (C-terminal, Invitrogen). tPA was detected using sheep polyclonal antibodies against human tPA (ab9030, Abcam).

T1 sequence (Q9NRA1 23-345): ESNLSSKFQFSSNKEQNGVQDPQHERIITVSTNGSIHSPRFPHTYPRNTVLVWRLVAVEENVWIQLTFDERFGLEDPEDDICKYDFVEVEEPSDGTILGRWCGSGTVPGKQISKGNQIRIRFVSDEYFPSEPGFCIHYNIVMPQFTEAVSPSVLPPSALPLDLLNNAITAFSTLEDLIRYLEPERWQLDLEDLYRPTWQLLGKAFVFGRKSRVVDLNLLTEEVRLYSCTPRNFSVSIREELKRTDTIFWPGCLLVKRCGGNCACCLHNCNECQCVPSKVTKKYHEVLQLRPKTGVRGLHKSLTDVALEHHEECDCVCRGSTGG

B1: neurotrypsin: human neurotrypsin, trypsin-like serine protease cloned from AG1523 cells (protein)
chain: FDSVLNDSLHHSHRHSPPAGPHYPYYLPTQQRPPRTRPPPPLPRFPRPPRALPAQRPHALQAGHTPRPHPWGCPAGEPWVSVTDFGAPCLRWAEVPPFLERSPPASWAQLRGQRHNFCRSPDGAGRPWCFYGDARGKVDWGYCDCRHGSVRLRGGKNEFEGTVEVYASGVWGTVCSSHWDDSDASVICHQLQLGGKGIAKQTPFSGLGLIPIYWSNVRCRGDEENILLCEKDIWQGGVCPQKMAAAVTCSFSHGPTFPIIRLAGGSSVHEGRVELYHAGQWGTVCDDQWDDADAEVICRQLGLSGIAKAWHQAYFGEGSGPVMLDEVRCTGNELSIEQCPKSSWGEHNCGHKEDAGVSCTPLTDGVIRLAGGKGSHEGRLEVYYRGQWGTVCDDGWTELNTYVVCRQLGFKYGKQASANHFEESTGPIWLDDVSCSGKETRFLQCSRRQWGRHDCSHREDVSIACYPGGEGHRLSLGFPVRLMDGENKKEGRVEVFINGQWGTICDDGWTDKDAAVICRQLGYKGPARARTMAYFGEGKGPIHVDNVKCTGNERSLADCIKQDIGRHNCRHSEDAGVICDYFGKKASGNSNKESLSSVCGLRLLHRRQKRIIGGKNSLRGGWPWQVSLRLKSSHGDGRLLCGATLLSSCWVLTAAHCFKRYGNSTRSYAVRVGDYHTLVPEEFEEEIGVQQIVIHREYRPDRSDYDIALVRLQGPEEQCARFSSHVLPACLPLWRERPQKTASNCYITGWGDTGRAYSRTLQQAAIPLLPKRFCEERYKGRFTGRMLCAGNLHEHKRVDSCQGDSGGPLMCERPGESWVVYGVTSWGYGCGVKDSPGVYTKVSAFVPWIKSVTKL
- cleavage of latent PDGF-CC by the coexpressed protease (latent PDGF-CC): lacked proteolytic activity toward latent PDGF-CC
- cleavage and activation of latent PDGF-DD by the coexpressed protease (latent PDGF-DD): neither of the two enzymes was able to cleave and activate latent PDGF-DD

— US20060104978A1, “Methods and compositions for PDGF-C activation and inhibition” (LUDWIG INSTITUTE FOR CANCER RESEARCH, priority 2003, published 2006)
